Data: US20260116921A1, “PEPTIDE INHIBITORS OF INTERLEUKIN-23 RECEPTOR AND THEIR USE TO TREAT INFLAMMATORY DISEASES” (priority 2018, published 2026)
Bridge positions count the residues as written; N and C are the ends. Square brackets hold non-standard residues; d marks the D form. Trp(7-OMe) = COc1cccc2c(C[C@H](N)C(=O)O)c[nH]c12; Trp(7-Me) = Cc1cccc2c(C[C@H](N)C(=O)O)c[nH]c12; 2Nal = N[C@@H](Cc1ccc2ccccc2c1)C(=O)O; AEF = NCCOc1ccc(C[C@H](N)C(=O)O)cc1; Cit = NC(=O)NCCC[C@H](N)C(=O)O; Pen = CC(C)(S)[C@H](N)C(=O)O; αMeK = C[C@](N)(CCCCN)C(=O)O; Aib = CC(C)(N)C(=O)O; βAla = NCCC(=O)O

B1: SEQ ID NO: 202 (peptide)
peptide: XNTXQXXXXKNX
modifications: Ac-[Pen]-NT-[W(7-Me)]-Q-[Pen]-Phe[4-(2-aminoethoxy)]-[2-Nal]-[a-MeLys]-[Lys(Ac)]-N-[bA]-NH2; Pen-Pen disulfide
B2: SEQ ID NO: 203 (peptide)
peptide: RXQTXQCXXXENX
modifications: Ac-[(D)Arg]-Abu-Q-T-[W(7-Me)]-Q-C-Phe[4-(2-aminoethoxy)]-[2-Nal]-[THP]-E-N-[bA]-NH2; Abu-Cys thioether
B3: SEQ ID NO: 207 (peptide)
peptide: XNTXQXXXXKAX
modifications: Ac-[Pen]-NT-[W(7-Me)]-Q-[Pen]-Phe[4-(2-aminoethoxy)]-[2-Nal]-[a-MeLeu]-[Lys(Ac)]-A-[bA]-NH2; Pen-Pen disulfide
B4: SEQ ID NO: 208 (peptide)
peptide: XNTXQXXXXKLX
modifications: Ac-[Pen]-NT-[W(7-Me)]-Q-[Pen]-Phe[4-(2-aminoethoxy)]-[2-Nal]-[a-MeLeu]-[Lys(Ac)]-L-[bA]-NH2; Pen-Pen disulfide
B5: SEQ ID NO: 214 (peptide)
peptide: XNTXQXXXXKHX
modifications: Ac-[Pen]-NT-[W(7-Me)]-Q-[Pen]-Phe[4-(2-aminoethoxy)]-[2-Nal]-[a-MeLeu]-[Lys(Ac)]-H-[bA]-NH2; Pen-Pen disulfide
B6: SEQ ID NO: 221 (peptide)
peptide: XNTXQXXXXKSX
modifications: Ac-[Pen]-NT-[W(7-Me)]-Q-[Pen]-Phe[4-(2-aminoethoxy)]-[2-Nal]-[a-MeLeu]-[Lys(Ac)]-S-[bA]-NH2; Pen-Pen disulfide
B7: SEQ ID NO: 226 (peptide)
peptide: XNTXQXXXXKXX
modifications: Ac-[Pen]-NT-[W(7-Me)]-Q-[Pen]-Phe[4-(2-aminoethoxy)]-[2-Nal]-[a-MeLeu]-[Lys(Ac)]-[bA]-[bA]-NH2; Pen-Pen disulfide
B8: SEQ ID NO: 300 (peptide)
peptide: Ac-[Pen]NT[Trp(7-OMe)][Cit][Pen][AEF][2Nal][αMeK]K(Ac)N[dK]-NH2
modifications: disulfide 1-6
SMILES: COc1cccc2c(C[C@@H]3NC(=O)[C@H]([C@@H](C)O)NC(=O)[C@H](CC(N)=O)NC(=O)[C@@H](NC(C)=O)C(C)(C)SSC(C)(C)[C@@H](C(=O)N[C@@H](Cc4ccc(OCCN)cc4)C(=O)N[C@@H](Cc4ccc5ccccc5c4)C(=O)N[C@@](C)(CCCCN)C(=O)N[C@@H](CCCCNC(C)=O)C(=O)N[C@@H](CC(N)=O)C(=O)N[C@H](CCCCN)C(N)=O)NC(=O)[C@H](CCCNC(N)=O)NC3=O)c[nH]c12
B9: SEQ ID NO: 319 (peptide)
peptide: XNTXXXXXXKNL
modifications: Ac-[Pen]-N-T-[W(7-Me)]-[Lys(trifluoropropionic)]-[Pen]-Phe[4-(2-aminoethoxy)]-[2-Nal]-[a-MeLys]-[Lys(Ac)]-N-[(D)Leu]-NH2; Pen-Pen disulfide
B10: SEQ ID NO: 320 (peptide)
peptide: XNTXXXXXXKNL
modifications: Ac-[Pen]-N-T-[W(7-Me)]-[Lys(Gly)]-[Pen]-Phe[4-(2-aminoethoxy)]-[2-Nal]-[a-MeLys]-[Lys(Ac)]-N-[(D)Leu]-NH2; Pen-Pen disulfide
B11: SEQ ID NO: 322 (peptide)
peptide: XNTXXXXXXKNL
modifications: Ac-[Pen]-N-T-[W(7-Me)]-[Lys(Aib)]-[Pen]-Phe[4-(2-aminoethoxy)]-[2-Nal]-[a-MeLys]-[Lys(Ac)]-N-[(D)Leu]-NH2; Pen-Pen disulfide
B12: SEQ ID NO: 340 (peptide)
peptide: Ac-[Pen]NT[Trp(7-Me)][Cit][Pen][AEF][2Nal][αMeK]K(Ac)N[Aib][βAla]-NH2
modifications: disulfide 1-6
SMILES: CC(=O)NCCCC[C@H](NC(=O)[C@](C)(CCCCN)NC(=O)[C@H](Cc1ccc2ccccc2c1)NC(=O)[C@H](Cc1ccc(OCCN)cc1)NC(=O)[C@H]1NC(=O)[C@H](CCCNC(N)=O)NC(=O)[C@H](Cc2c[nH]c3c(C)cccc23)NC(=O)[C@H]([C@@H](C)O)NC(=O)[C@H](CC(N)=O)NC(=O)[C@@H](NC(C)=O)C(C)(C)SSC1(C)C)C(=O)N[C@@H](CC(N)=O)C(=O)NC(C)(C)C(=O)NCCC(N)=O
B13: SEQ ID NO: 341 (peptide)
peptide: Ac-[Pen]NT[Trp(7-Me)][Cit][Pen][AEF][2Nal][αMeK]K(Ac)N[Aib]G-NH2
modifications: disulfide 1-6
SMILES: CC(=O)NCCCC[C@H](NC(=O)[C@](C)(CCCCN)NC(=O)[C@H](Cc1ccc2ccccc2c1)NC(=O)[C@H](Cc1ccc(OCCN)cc1)NC(=O)[C@H]1NC(=O)[C@H](CCCNC(N)=O)NC(=O)[C@H](Cc2c[nH]c3c(C)cccc23)NC(=O)[C@H]([C@@H](C)O)NC(=O)[C@H](CC(N)=O)NC(=O)[C@@H](NC(C)=O)C(C)(C)SSC1(C)C)C(=O)N[C@@H](CC(N)=O)C(=O)NC(C)(C)C(=O)NCC(N)=O
B14: SEQ ID NO: 342 (peptide)
peptide: Ac-[Pen]NT[Trp(7-Me)][Cit][Pen][AEF][2Nal][αMeK]K(Ac)N[Aib]A-NH2
modifications: disulfide 1-6
SMILES: CC(=O)NCCCC[C@H](NC(=O)[C@](C)(CCCCN)NC(=O)[C@H](Cc1ccc2ccccc2c1)NC(=O)[C@H](Cc1ccc(OCCN)cc1)NC(=O)[C@H]1NC(=O)[C@H](CCCNC(N)=O)NC(=O)[C@H](Cc2c[nH]c3c(C)cccc23)NC(=O)[C@H]([C@@H](C)O)NC(=O)[C@H](CC(N)=O)NC(=O)[C@@H](NC(C)=O)C(C)(C)SSC1(C)C)C(=O)N[C@@H](CC(N)=O)C(=O)NC(C)(C)C(=O)N[C@@H](C)C(N)=O
B15: SEQ ID NO: 344 (peptide)
peptide: Ac-[Pen]NT[Trp(7-Me)][Cit][Pen][AEF][2Nal][αMeK]K(Ac)N[Aib][dK]-NH2
modifications: disulfide 1-6
SMILES: CC(=O)NCCCC[C@H](NC(=O)[C@](C)(CCCCN)NC(=O)[C@H](Cc1ccc2ccccc2c1)NC(=O)[C@H](Cc1ccc(OCCN)cc1)NC(=O)[C@H]1NC(=O)[C@H](CCCNC(N)=O)NC(=O)[C@H](Cc2c[nH]c3c(C)cccc23)NC(=O)[C@H]([C@@H](C)O)NC(=O)[C@H](CC(N)=O)NC(=O)[C@@H](NC(C)=O)C(C)(C)SSC1(C)C)C(=O)N[C@@H](CC(N)=O)C(=O)NC(C)(C)C(=O)N[C@H](CCCCN)C(N)=O
B16: SEQ ID NO: 345 (peptide)
peptide: Ac-[Pen]NT[Trp(7-Me)][Cit][Pen][AEF][2Nal][αMeK]K(Ac)N[Aib][dR]-NH2
modifications: disulfide 1-6
SMILES: CC(=O)NCCCC[C@H](NC(=O)[C@](C)(CCCCN)NC(=O)[C@H](Cc1ccc2ccccc2c1)NC(=O)[C@H](Cc1ccc(OCCN)cc1)NC(=O)[C@H]1NC(=O)[C@H](CCCNC(N)=O)NC(=O)[C@H](Cc2c[nH]c3c(C)cccc23)NC(=O)[C@H]([C@@H](C)O)NC(=O)[C@H](CC(N)=O)NC(=O)[C@@H](NC(C)=O)C(C)(C)SSC1(C)C)C(=O)N[C@@H](CC(N)=O)C(=O)NC(C)(C)C(=O)N[C@H](CCCNC(=N)N)C(N)=O
B17: SEQ ID NO: 346 (peptide)
peptide: Ac-[Pen]NT[Trp(7-Me)][Cit][Pen][AEF][2Nal][αMeK]K(Ac)N[Aib][dF]-NH2
modifications: disulfide 1-6
SMILES: CC(=O)NCCCC[C@H](NC(=O)[C@](C)(CCCCN)NC(=O)[C@H](Cc1ccc2ccccc2c1)NC(=O)[C@H](Cc1ccc(OCCN)cc1)NC(=O)[C@H]1NC(=O)[C@H](CCCNC(N)=O)NC(=O)[C@H](Cc2c[nH]c3c(C)cccc23)NC(=O)[C@H]([C@@H](C)O)NC(=O)[C@H](CC(N)=O)NC(=O)[C@@H](NC(C)=O)C(C)(C)SSC1(C)C)C(=O)N[C@@H](CC(N)=O)C(=O)NC(C)(C)C(=O)N[C@H](Cc1ccccc1)C(N)=O
B18: SEQ ID NO: 347 (peptide)
peptide: Ac-[Pen]NT[Trp(7-Me)][Cit][Pen][AEF][2Nal][αMeK]K(Ac)N[Aib][dY]-NH2
modifications: disulfide 1-6
SMILES: CC(=O)NCCCC[C@H](NC(=O)[C@](C)(CCCCN)NC(=O)[C@H](Cc1ccc2ccccc2c1)NC(=O)[C@H](Cc1ccc(OCCN)cc1)NC(=O)[C@H]1NC(=O)[C@H](CCCNC(N)=O)NC(=O)[C@H](Cc2c[nH]c3c(C)cccc23)NC(=O)[C@H]([C@@H](C)O)NC(=O)[C@H](CC(N)=O)NC(=O)[C@@H](NC(C)=O)C(C)(C)SSC1(C)C)C(=O)N[C@@H](CC(N)=O)C(=O)NC(C)(C)C(=O)N[C@H](Cc1ccc(O)cc1)C(N)=O
B19: SEQ ID NO: 211 (peptide)
peptide: XNTXQXXXXKPX
modifications: Ac-[Pen]-NT-[W(7-Me)]-Q-[Pen]-Phe[4-(2-aminoethoxy)]-[2-Nal]-[a-MeLeu]-[Lys(Ac)]-P-[bA]-NH2; Pen-Pen disulfide
B20: SEQ ID NO: 220 (peptide)
peptide: XNTXQXXXXGPX
modifications: Ac-[Pen]-NT-[W(7-Me)]-Q-[Pen]-Phe[4-(2-aminoethoxy)]-[2-Nal]-[a-MeLeu]-G-[(D)Pro]-[bA]-NH2; Pen-Pen disulfide
B21: SEQ ID NO: 224 (peptide)
peptide: XNTXQXXXXKXX
modifications: Ac-[Pen]-NT-[W(7-Me)]-Q-[Pen]-Phe[4-(2-aminoethoxy)]-[2-Nal]-[a-MeLeu]-[Lys(Ac)]-[Sarc]-[bA]-NH2; Pen-Pen disulfide

These binders were tested against T1, IL-23R (human, UniProt Q5VWK5 24-629) (assay: cell-based or functional assay).
T1 sequence (looked up): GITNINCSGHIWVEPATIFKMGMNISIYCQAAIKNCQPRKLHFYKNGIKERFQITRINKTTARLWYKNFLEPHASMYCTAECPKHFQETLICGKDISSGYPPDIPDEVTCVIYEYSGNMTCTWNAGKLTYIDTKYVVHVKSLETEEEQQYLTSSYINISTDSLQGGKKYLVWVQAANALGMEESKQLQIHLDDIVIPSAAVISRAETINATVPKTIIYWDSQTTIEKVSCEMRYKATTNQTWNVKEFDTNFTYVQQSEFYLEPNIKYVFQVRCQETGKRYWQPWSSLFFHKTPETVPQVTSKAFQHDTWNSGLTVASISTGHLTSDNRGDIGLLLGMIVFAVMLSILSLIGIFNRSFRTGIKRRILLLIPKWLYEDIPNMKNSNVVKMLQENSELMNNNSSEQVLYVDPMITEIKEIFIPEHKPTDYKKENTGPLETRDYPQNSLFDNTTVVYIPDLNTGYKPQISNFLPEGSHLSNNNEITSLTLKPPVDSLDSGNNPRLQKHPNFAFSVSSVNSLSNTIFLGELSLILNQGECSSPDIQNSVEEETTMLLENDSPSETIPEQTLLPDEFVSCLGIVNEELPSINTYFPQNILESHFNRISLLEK
In the case of B1, the “NK Cell Assay (nM) IC50” value is reported as under 10 nM.
B2 was tested, and the “NK Cell Assay (nM) IC50” value was under 10 nM.
For B3, the “NK Cell Assay (nM) IC50” value was under 10 nM.
With B4 the “NK Cell Assay (nM) IC50” value was under 10 nM.
With B5 the “NK Cell Assay (nM) IC50” value was under 10 nM.
With B6 the “NK Cell Assay (nM) IC50” value was under 10 nM.
For B7, the “NK Cell Assay (nM) IC50” value was under 10 nM.

Biological target: T1, IL-23R
Experiment: cell-based or functional assay
Remark: another data set of the same source
With B8 the “pStat3 HTRF (nM) IC50” value was over 100 nM.
With B9 the “pStat3 HTRF (nM) IC50” value was under 1 nM.
For B10, the “pStat3 HTRF (nM) IC50” value was under 1 nM.
In the case of B11, the “pStat3 HTRF (nM) IC50” value is reported as under 1 nM.
For B12, the “pStat3 HTRF (nM) IC50” value was under 1 nM.
In the case of B13, the “pStat3 HTRF (nM) IC50” value is reported as under 1 nM.
With B14 the “pStat3 HTRF (nM) IC50” value was under 1 nM.
With B15 the “pStat3 HTRF (nM) IC50” value was under 1 nM.
For B16, the “pStat3 HTRF (nM) IC50” value was under 1 nM.
For B17, the “pStat3 HTRF (nM) IC50” value was under 1 nM.
B18 was tested, and the “pStat3 HTRF (nM) IC50” value was under 1 nM.
In the case of B19, the “pStat3 HTRF (nM) IC50” value is reported as over 100 nM.
With B20 the “pStat3 HTRF (nM) IC50” value was over 100 nM.
With B21 the “pStat3 HTRF (nM) IC50” value was over 100 nM.
